Laboratory results taken from the supplement of paper PMC10065799, “High-throughput profiling of sequence recognition by tyrosine kinases and SH2 domains using bacterial peptide display” (eLife, 2023).

What was measured:
Grb2 SH2 = Grb2 SH2 (UniProt P62993); assay: SH2 binding enrichment of the phosphorylated peptide, bacterial display (enrichment ratio); higher = better substrate or ligand; peptides without Tyr show the background
c-Src SH2 = assay: as above
SHP2-C SH2 = assay: as above
Fes = Fes (UniProt P07332); assay: phosphorylation enrichment, bacterial display (enrichment ratio); higher = better substrate or ligand; peptides without Tyr show the background
Fes, sequence (P07332 whole entry, looked up): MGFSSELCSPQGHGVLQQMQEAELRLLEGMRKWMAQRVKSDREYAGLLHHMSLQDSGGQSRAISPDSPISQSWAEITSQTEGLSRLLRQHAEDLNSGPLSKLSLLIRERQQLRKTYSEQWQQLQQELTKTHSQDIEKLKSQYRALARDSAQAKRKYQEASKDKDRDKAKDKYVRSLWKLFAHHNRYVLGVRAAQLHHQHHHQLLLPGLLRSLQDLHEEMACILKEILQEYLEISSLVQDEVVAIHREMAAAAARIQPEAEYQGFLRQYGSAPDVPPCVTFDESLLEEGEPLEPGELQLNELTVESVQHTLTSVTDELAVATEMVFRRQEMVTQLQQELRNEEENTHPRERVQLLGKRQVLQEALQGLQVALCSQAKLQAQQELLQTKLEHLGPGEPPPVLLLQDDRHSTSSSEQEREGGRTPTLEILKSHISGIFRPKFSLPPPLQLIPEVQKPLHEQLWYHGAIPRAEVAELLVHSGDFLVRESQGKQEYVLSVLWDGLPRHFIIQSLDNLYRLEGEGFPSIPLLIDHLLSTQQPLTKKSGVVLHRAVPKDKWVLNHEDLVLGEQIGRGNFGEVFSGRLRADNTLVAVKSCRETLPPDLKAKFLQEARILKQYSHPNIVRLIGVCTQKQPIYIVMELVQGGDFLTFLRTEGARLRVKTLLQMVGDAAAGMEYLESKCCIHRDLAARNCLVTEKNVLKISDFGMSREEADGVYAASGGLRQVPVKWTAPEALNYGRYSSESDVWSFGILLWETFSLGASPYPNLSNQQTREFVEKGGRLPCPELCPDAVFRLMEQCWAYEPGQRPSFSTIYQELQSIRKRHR

Fer (mouse) = assay: as above
Jak2 = Jak2 (UniProt O60674); assay: as above
Jak2, sequence (O60674 whole entry, looked up): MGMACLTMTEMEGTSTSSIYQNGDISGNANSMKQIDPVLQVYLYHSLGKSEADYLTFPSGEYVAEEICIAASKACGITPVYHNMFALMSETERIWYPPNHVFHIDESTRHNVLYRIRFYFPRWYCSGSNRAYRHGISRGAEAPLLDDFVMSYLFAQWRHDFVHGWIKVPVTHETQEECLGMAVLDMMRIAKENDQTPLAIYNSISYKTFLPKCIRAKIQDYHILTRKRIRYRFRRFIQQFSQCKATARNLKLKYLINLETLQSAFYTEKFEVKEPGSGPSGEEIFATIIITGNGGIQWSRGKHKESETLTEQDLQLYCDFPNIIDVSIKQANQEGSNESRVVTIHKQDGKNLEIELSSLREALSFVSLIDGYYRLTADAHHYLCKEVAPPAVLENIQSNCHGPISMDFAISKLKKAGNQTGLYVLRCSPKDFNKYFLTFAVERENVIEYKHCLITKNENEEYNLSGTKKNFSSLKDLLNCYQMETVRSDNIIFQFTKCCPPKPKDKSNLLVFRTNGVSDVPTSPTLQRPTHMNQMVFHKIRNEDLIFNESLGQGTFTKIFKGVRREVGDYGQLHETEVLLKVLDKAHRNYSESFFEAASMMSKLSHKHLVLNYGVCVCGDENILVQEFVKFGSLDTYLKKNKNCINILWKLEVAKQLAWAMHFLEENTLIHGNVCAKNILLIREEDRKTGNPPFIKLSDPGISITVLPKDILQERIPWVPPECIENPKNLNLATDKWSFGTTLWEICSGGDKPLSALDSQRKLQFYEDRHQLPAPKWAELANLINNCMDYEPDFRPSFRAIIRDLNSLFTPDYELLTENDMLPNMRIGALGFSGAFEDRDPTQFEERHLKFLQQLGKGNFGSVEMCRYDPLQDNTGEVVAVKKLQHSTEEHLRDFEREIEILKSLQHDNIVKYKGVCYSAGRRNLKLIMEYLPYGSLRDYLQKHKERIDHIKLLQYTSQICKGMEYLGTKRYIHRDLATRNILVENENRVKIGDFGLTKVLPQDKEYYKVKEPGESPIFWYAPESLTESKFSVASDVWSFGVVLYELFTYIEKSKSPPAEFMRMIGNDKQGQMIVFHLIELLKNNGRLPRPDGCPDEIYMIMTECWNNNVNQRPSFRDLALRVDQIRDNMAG

AncSZ = assay: as above
EPHB2 = EPHB2 (UniProt P29323); assay: as above
MERTK = MERTK (UniProt Q12866); assay: as above
MERTK, sequence (Q12866 whole entry, looked up): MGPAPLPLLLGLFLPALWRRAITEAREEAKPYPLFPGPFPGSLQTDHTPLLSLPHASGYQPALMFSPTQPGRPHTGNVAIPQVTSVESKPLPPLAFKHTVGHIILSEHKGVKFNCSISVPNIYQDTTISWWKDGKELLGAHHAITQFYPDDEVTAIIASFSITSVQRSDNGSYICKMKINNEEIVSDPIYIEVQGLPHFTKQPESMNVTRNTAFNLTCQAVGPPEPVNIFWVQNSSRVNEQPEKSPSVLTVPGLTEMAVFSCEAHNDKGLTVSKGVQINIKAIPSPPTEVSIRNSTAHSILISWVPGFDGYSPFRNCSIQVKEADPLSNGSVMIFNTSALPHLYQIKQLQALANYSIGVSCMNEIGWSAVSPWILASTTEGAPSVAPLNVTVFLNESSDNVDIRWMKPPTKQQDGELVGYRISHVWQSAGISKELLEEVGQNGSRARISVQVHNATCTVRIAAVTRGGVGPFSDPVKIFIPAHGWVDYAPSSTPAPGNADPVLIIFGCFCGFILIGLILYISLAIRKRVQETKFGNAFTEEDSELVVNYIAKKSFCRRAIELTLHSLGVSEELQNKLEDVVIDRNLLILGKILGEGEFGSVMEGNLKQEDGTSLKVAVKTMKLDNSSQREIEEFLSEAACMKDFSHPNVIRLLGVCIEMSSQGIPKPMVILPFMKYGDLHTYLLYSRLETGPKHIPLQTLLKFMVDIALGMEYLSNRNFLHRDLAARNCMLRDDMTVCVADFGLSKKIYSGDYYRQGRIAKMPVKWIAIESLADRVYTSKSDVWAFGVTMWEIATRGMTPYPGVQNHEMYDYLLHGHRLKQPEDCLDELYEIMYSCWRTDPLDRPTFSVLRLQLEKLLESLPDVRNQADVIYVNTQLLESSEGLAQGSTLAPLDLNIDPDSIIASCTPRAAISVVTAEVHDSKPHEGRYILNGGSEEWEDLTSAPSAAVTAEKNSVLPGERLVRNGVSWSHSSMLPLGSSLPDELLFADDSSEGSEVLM

EPHB1 = EPHB1 (UniProt P54762); assay: as above
Hck = Hck (UniProt P08631); assay: as above
Hck, sequence (P08631 whole entry, looked up): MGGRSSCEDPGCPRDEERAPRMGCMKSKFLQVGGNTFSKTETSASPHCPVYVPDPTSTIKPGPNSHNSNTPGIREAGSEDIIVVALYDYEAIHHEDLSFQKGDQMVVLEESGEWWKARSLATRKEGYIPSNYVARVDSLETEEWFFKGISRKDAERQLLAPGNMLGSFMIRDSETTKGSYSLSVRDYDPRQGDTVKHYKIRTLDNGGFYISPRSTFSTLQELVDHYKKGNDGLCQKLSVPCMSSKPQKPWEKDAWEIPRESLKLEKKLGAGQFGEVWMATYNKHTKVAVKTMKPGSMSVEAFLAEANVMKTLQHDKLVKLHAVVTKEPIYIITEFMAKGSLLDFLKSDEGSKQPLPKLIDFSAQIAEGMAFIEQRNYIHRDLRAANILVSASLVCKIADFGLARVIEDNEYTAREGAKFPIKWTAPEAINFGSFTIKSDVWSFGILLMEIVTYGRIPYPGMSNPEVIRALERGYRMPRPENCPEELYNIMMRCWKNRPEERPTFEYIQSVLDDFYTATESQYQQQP

c-Src = assay: as above
FGFR3 = FGFR3 (UniProt P22607); assay: as above
c-Abl (mouse) = assay: as above
Fyn = Fyn (UniProt P06241); assay: as above
Fyn, sequence (P06241 whole entry, looked up): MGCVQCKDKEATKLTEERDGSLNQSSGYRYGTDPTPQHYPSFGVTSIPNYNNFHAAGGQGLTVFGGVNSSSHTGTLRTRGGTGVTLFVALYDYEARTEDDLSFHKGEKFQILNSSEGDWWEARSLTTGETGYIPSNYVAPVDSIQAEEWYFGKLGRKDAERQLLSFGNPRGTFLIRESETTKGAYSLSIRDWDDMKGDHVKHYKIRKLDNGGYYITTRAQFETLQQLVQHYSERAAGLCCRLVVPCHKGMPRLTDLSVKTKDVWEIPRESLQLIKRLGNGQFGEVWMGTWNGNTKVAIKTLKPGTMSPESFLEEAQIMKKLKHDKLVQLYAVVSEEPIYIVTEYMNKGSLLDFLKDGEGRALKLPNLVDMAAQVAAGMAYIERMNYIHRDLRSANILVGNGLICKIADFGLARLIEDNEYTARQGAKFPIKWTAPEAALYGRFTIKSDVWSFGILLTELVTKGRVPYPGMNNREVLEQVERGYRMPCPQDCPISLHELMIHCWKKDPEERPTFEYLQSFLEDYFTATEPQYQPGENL

FGFR1 = FGFR1 (UniProt P11362); assay: as above
FGFR1, sequence (P11362 whole entry, looked up, the tested form may be a part): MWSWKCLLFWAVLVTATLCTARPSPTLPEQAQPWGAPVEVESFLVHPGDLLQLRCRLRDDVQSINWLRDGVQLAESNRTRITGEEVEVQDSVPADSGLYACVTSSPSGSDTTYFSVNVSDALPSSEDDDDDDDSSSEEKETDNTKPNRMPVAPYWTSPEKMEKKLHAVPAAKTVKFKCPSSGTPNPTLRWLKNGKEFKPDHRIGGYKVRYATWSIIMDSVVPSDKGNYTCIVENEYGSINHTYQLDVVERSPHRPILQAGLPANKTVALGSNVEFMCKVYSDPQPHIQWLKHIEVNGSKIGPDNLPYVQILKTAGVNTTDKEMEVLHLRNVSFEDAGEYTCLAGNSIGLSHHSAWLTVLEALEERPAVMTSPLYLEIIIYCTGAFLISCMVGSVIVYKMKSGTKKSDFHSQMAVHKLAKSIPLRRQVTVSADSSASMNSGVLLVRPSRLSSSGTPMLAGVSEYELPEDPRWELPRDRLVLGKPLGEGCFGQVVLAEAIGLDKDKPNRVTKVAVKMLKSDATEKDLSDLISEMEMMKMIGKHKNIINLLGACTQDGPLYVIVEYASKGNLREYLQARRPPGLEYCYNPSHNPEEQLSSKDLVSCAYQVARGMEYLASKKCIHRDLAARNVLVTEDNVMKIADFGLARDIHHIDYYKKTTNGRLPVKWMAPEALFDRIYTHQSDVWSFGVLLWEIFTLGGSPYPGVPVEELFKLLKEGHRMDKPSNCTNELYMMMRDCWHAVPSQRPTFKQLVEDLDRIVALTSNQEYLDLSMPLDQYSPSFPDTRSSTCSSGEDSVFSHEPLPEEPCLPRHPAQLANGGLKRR
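Throughout, for SH2 binding enrichment of the phosphorylated peptide, bacterial display: peptide library displayed on the E. coli surface as eCPX fusions, selected cells deep-sequenced, score is each peptide's frequency after selection divided by its frequency in the input.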
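Throughout, for phosphorylation enrichment, bacterial display: 11-residue human phosphosite peptides and single-mutation variants displayed on the E. coli surface, counted by deep sequencing, each peptide's frequency after selection divided by its frequency in the unselected input library; frequency after pTyr selection over input frequency; kinase dosed for 20-30% of maximal phosphorylation in three min.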

Sequence	SH2 binding enrichment (Grb2 SH2)	SH2 binding enrichment (c-Src SH2)	SH2 binding enrichment (SHP2-C SH2)	phosphorylation enrichment (Fes)	phosphorylation enrichment (Fer (mouse))	phosphorylation enrichment (Jak2)	phosphorylation enrichment (AncSZ)	phosphorylation enrichment (EPHB2)	phosphorylation enrichment (MERTK)	phosphorylation enrichment (EPHB1)	phosphorylation enrichment (Hck)	phosphorylation enrichment (c-Src)	phosphorylation enrichment (FGFR3)	phosphorylation enrichment (c-Abl (mouse))	phosphorylation enrichment (Fyn)	phosphorylation enrichment (FGFR1)
FASVEYQEALS [GALNS_Y461_A459V]	0.917	0.576	0.723	0.997	0.47	0.876	1.01	0.588	0.416	0.621	0.471	0.442	0.631	0.738	0.615	0.484
LGGSPYPSVPV [FGFR1_Y701_G703S]	0.915	0.476	0.608	1.25	0.675	0.645	1.04	0.735	0.614	0.85	0.817	0.453	0.646	0.747	0.564	0.784
KRYRIYHLATS [BRCA2_Y3009]	0.791	1.34	0.493	0.491	0.313	0.336	0.564	0.461	0.322	0.456	0.432	0.508	0.509	0.402	0.445	0.487
KQLGEYKFQNA [ALB_Y425_E420K]	0.897	0.565	1.04	0.565	0.306	0.525	0.507	0.386	0.399	0.348	0.375	0.358	0.417	0.4	0.395	0.468
RLAKTYETTLK [ALB_Y377_E382K]	0.809	0.557	0.556	0.848	0.406	0.607	0.768	0.681	0.695	1	0.459	0.817	0.463	1.65	0.82	0.553
KWRGQYDVANK [BTK_Y425_I429N]	1.08	1.2	0.957	0.705	0.446	0.6	0.533	0.396	0.387	0.381	0.445	0.376	0.57	0.594	0.359	0.439
RSRQIYDAYIM [GRK3_Y109]	0.822	0.683	0.727	0.807	14.6	1.15	0.914	6.14	8.17	3	10.4	11	0.8	6.11	15.2	0.511
FIGRIYLYLTK [GARS1_Y414]	1.05	0.74	1.25	1.12	0.535	1.14	1.64	0.39	0.538	0.556	0.416	0.469	0.627	1.18	0.445	0.487
GVSFIYTIDGS [DCX_Y105_R102S_YF]	0.88	0.584	0.725	1.31	0.491	1.54	1.43	0.532	0.552	0.694	0.976	1.98	0.753	0.927	2.18	0.496
KTNVSYCGALD [CACNB4_Y103]	0.9	0.551	0.726	0.834	0.46	0.754	0.778	0.508	0.389	0.564	0.503	0.469	0.643	0.745	0.381	0.494
LADKPYTFEYY [FXN_Y118_D122Y]	1.19	1.28	0.899	1.08	0.833	1.25	1	0.719	0.52	0.782	0.707	2.68	0.969	0.802	1.77	1.08
VDSAHYQLLET [DTX3L_Y385_K386Q]	0.677	6.34	0.541	0.909	4.07	0.891	0.946	0.616	1.13	0.813	0.709	0.705	0.952	0.728	0.588	1.14
KASRKYFAMKI [AKT3_Y173_G171R_YF]	0.796	0.472	0.666	0.52	0.389	0.569	0.555	0.391	0.811	0.286	0.388	0.456	0.363	0.624	0.359	0.365
SLKEFYGEDAK [ALDH3A1_Y272]	0.916	0.511	0.599	1.08	0.588	0.903	0.929	0.472	0.388	0.434	0.501	0.44	0.692	0.561	0.51	0.472
PADCRYFAFPQ [GAMT_Y222_YF]	0.818	1.26	1.18	0.99	0.636	2.66	1.35	0.959	5.65	1.29	0.733	1.43	1.78	0.752	0.817	2.35
NYADPYRQLPY [CTNND2_Y503_Q507P]	0.775	1.25	0.749	0.819	0.469	0.669	0.78	10.7	6.98	10.1	0.847	0.827	2.33	0.847	0.501	4.13

The next lines start with results.

SH2 binding enrichment (Grb2 SH2)	SH2 binding enrichment (c-Src SH2)	SH2 binding enrichment (SHP2-C SH2)	Sequence	phosphorylation enrichment (Fes)	phosphorylation enrichment (Fer (mouse))	phosphorylation enrichment (Jak2)	phosphorylation enrichment (AncSZ)	phosphorylation enrichment (EPHB2)	phosphorylation enrichment (MERTK)	phosphorylation enrichment (EPHB1)	phosphorylation enrichment (Hck)	phosphorylation enrichment (c-Src)	phosphorylation enrichment (FGFR3)	phosphorylation enrichment (c-Abl (mouse))	phosphorylation enrichment (Fyn)	phosphorylation enrichment (FGFR1)
0.762	0.419	0.73	ISSLDYISKTK [VAV3_Y294]	0.696	0.386	0.495	0.703	0.463	0.537	0.626	0.447	0.487	0.513	0.478	0.559	0.505
1.08	0.554	1.02	NHYKIHNLCAE [PTEN_Y68_Y68H]	0.823	0.463	0.706	0.593	0.614	0.435	0.56	0.476	0.492	0.58	0.696	0.421	0.493
0.827	1.9	1.63	ELQGTYTSLQQ [KIF3C_Y574_R571Q]	0.995	0.592	0.867	0.984	0.862	0.641	0.638	1.74	3.34	0.595	0.768	2.63	0.63
1.11	1.19	1.18	KWHREYNSKFV [RICTOR_Y835_YF]	0.623	0.422	0.581	0.556	0.391	0.37	0.35	0.371	0.334	0.49	0.555	0.364	0.371
0.721	0.593	0.766	TRNRDYDDIDD [TTYH2_Y424]	0.917	0.438	0.734	1.02	0.563	0.507	0.497	0.527	0.448	0.665	0.621	0.451	0.562
0.751	0.477	0.527	ADARMCGVLPW [PLP1_Y207_Y207C]	1	0.44	1.1	0.93	0.524	0.436	0.606	0.488	0.487	0.671	0.746	0.436	0.489
0.851	0.62	0.632	QQLVAYYSKHA [SRC_Y232]	1.15	0.559	1.3	1.75	0.916	0.944	0.765	0.781	1.02	1.14	0.934	0.723	0.71
0.868	0.513	0.622	ITKNPYDPPGR	0.766	0.437	0.662	0.657	0.428	0.424	0.457	0.454	0.433	0.645	0.556	0.432	0.427
1.03	5.15	0.938	HVKHNYECLVY [XRCC5_Y416_I412V]	1.2	0.573	1.12	1.06	2.04	0.519	2.87	0.842	2.04	1.12	1.01	0.922	0.75
0.592	0.585	0.377	CFTGKYTLPPG [HSPB1_Y142_R140G]	1.25	0.521	0.908	1.09	0.649	0.767	0.562	0.519	0.429	0.75	0.833	0.595	0.447
0.786	0.546	0.685	DRLASYQDKVR [KRT12_Y139_L140Q]	0.68	0.299	0.577	0.532	0.461	0.437	0.411	0.417	0.41	0.539	0.516	0.361	0.394
0.824	3.41	1.24	DLAAQYTTVGR [SGSH_Y240]	0.664	0.382	0.724	0.701	0.415	0.494	0.407	0.799	0.912	0.53	0.542	0.52	0.462
0.898	0.63	0.915	VRTGIYHGGKP [PIK3CA_Y361_E365K]	0.499	0.359	0.464	0.451	0.336	0.294	0.268	0.713	0.318	0.275	0.501	0.309	0.456
0.626	0.377	0.491	TGEDWYVLVRV [SF3B3_Y904_G908R]	1.42	0.524	1.21	1.37	0.64	0.364	0.893	0.561	0.385	0.827	0.954	0.433	0.405
0.88	0.624	0.766	MDFRSYPHEFG [RBM10_Y44_R46H_YF]	0.69	0.354	0.536	0.64	0.402	0.366	0.434	0.335	0.317	0.526	0.465	0.397	0.464
0.644	0.367	0.605	SVTCTYSPAHN [TP53_Y126_L130H]	1.59	0.799	2.08	1.37	0.705	0.663	0.773	0.517	0.802	0.865	1.17	0.497	0.502
1.21	0.736	1.39	NTQRPYYKGGG [TYROBP_Y111]	0.592	0.411	0.601	0.516	0.383	0.415	0.331	0.431	0.432	0.421	0.427	0.305	0.511
